Assay results as given in publication PMC2683190 (Neurobiology of disease, 2009).

Columns and labels:
[1] = target: T1, soluble LIFR (leukemia inhibitory factor receptor) (UniProt P42702 45-833); test: SPR
T1 sequence (looked up): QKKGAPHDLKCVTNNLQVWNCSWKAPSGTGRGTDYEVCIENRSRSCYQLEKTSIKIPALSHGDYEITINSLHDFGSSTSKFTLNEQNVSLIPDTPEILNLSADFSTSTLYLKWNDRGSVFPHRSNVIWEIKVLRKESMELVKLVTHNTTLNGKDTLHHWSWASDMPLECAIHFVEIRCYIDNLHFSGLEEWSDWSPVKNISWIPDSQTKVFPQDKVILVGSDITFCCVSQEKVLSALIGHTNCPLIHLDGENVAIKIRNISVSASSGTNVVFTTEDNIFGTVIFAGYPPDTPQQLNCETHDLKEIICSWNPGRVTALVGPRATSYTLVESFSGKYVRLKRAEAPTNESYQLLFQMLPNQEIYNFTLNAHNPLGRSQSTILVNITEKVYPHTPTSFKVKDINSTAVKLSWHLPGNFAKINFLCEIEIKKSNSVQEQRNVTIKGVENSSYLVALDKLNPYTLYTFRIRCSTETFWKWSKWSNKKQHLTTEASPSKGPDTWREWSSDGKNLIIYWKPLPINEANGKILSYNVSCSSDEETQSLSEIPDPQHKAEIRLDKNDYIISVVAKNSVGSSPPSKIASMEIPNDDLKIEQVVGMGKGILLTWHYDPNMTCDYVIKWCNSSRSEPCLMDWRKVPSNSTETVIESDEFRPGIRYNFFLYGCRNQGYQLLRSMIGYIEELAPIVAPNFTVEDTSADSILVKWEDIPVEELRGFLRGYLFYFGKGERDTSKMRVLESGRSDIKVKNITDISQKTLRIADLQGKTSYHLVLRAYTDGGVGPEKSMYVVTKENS

[2] = target: T2, soluble gp130 (glycoprotein 130) (UniProt P40189 23-619); test: SPR
T2 sequence (looked up): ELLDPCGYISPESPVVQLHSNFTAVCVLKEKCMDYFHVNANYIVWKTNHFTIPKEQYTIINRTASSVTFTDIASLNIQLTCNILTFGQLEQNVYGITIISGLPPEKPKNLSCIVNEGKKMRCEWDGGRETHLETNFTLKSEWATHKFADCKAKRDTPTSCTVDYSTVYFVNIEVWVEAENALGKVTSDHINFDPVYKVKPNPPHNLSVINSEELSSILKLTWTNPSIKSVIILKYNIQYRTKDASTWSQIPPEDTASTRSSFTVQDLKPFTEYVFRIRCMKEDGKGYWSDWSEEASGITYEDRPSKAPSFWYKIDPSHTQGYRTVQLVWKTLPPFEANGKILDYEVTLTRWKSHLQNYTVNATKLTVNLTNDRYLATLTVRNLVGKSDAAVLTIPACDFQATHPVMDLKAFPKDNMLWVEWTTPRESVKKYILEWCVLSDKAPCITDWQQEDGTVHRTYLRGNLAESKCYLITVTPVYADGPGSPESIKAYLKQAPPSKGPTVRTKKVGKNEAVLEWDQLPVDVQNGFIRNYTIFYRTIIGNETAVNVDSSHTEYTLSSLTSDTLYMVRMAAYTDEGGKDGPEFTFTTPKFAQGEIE

Kd [1]: 2.93 nM
koff [1]: 0.00107 s⁻¹
kon [1]: 366000 M⁻¹ s⁻¹
Kd [2]: 9.02 nM
koff [2]: 0.0017 s⁻¹
kon [2]: 188000 M⁻¹ s⁻¹
B1: GST-LIF (human leukemia inhibitory factor as glutathione-S-transferase fusion protein) (ligand)
chain: not shown
